Substitutions are numbered along the chain they refer to. Read-outs that look alike come from different tables or passages of the source.
Tests used:
[1] = biological target: T1, human adenosine A2A receptor (residues 1-308, N154A) (human, UniProt P29274 1-308); test: cell-based or functional assay
[2] = biological target: T1, human adenosine A2A receptor (residues …); test: cell-based or functional assay; remark: listed apart in the source
[3] = biological target: T2, human angiotensin II type 1 receptor AT1R (residues 1-359) (human, UniProt P30556 1-359); test: cell-based or functional assay
T2 sequence (looked up): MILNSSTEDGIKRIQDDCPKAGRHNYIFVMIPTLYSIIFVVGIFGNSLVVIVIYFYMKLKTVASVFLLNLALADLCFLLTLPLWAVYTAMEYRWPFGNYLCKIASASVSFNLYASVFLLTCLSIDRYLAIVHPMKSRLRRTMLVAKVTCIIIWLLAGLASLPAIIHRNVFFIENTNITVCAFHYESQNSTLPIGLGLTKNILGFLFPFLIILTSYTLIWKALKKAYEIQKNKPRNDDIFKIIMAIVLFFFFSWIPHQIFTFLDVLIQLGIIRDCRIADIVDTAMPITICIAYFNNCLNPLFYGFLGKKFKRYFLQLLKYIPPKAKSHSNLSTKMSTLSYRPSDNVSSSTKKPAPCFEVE

[4] = biological target: T3, C-terminally truncated human A2AR (residues 1-317, N154A) (human, UniProt P29274 1-317); test: cell-based or functional assay
[5] = biological target: rat neurotensin receptor NTSR1 (residues 43-396) (rat, UniProt P20789 43-396); test: cell-based or functional assay
[6] = biological target: T3, C-terminally truncated human A2AR …; test: thermostability assay, DM-solubilised NECA-bound A2AR
[7] = biological target: T4, thioredoxin-A2AR fusion protein (human, UniProt P29274 6-316); test: analytical SEC of purified NECA-bound A2AR mixed with mini-Gs/q (1:1.2 molar ratio) and Coomassie-stained SDS-PAGE of fractions 10-20
T4 construct: range 6-316; gp67 leader is cleavable; not shown: His10 tag, TEV protease cleavage site and thioredoxin

[8] = biological target: β1AR-WT (wild type-like turkey β1 adrenergic receptor construct) (turkey, UniProt P07700 33-423, limits assumed); test: cell-based or functional assay
[9] = biological target: T4, thioredoxin-A2AR fusion protein; test: analytical SEC of purified NECA-bound A2AR mixed with mini-Gs/q (1:1.2 molar ratio) and Coomassie-stained SDS-PAGE of fractions 10-20; remark: listed apart in the source

T3 sequence (P29274 1-317 N154A): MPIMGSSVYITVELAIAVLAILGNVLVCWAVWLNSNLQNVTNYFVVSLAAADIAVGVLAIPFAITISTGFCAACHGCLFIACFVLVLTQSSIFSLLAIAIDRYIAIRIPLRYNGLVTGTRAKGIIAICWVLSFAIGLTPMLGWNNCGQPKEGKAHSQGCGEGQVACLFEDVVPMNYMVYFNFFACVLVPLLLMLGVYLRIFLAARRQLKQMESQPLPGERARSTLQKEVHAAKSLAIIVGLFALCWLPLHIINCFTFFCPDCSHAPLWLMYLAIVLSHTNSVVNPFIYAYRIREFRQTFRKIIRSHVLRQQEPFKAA
T1 sequence (P29274 1-308 N154A): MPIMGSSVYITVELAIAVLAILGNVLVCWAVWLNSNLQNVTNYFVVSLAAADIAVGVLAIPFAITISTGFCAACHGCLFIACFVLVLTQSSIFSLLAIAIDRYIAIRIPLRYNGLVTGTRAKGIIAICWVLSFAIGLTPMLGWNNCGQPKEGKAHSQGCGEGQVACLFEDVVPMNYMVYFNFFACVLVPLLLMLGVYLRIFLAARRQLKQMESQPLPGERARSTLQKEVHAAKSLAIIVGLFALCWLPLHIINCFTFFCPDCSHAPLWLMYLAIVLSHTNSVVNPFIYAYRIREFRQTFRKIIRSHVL
Chain of β1AR-WT (wild type-like turkey β1 adrenergic receptor construct) (P07700 other isoform, or with tags, fused parts or gaps limits assumed): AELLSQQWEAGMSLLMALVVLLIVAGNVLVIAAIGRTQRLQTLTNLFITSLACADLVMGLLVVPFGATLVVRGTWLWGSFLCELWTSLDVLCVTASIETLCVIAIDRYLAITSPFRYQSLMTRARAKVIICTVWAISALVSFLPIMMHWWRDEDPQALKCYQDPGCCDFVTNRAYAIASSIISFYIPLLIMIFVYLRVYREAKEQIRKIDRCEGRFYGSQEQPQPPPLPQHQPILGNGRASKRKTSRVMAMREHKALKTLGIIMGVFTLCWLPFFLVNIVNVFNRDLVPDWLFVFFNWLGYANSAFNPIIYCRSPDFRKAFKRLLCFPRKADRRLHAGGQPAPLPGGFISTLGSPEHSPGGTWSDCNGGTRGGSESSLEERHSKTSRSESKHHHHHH
Chain of rat neurotensin receptor NTSR1 (residues 43-396) (P20789 43-396 limits assumed): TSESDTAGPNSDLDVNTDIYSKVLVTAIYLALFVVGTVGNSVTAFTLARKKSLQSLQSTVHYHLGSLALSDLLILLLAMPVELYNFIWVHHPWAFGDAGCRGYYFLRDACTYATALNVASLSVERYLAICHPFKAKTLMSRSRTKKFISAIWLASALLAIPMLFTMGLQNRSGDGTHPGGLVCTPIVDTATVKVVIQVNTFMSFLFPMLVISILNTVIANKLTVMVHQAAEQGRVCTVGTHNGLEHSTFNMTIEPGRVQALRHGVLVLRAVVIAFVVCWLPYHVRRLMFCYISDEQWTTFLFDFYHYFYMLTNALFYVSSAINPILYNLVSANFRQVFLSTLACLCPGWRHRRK
T4 sequence (P29274 other isoform, or with tags, fused parts or gaps): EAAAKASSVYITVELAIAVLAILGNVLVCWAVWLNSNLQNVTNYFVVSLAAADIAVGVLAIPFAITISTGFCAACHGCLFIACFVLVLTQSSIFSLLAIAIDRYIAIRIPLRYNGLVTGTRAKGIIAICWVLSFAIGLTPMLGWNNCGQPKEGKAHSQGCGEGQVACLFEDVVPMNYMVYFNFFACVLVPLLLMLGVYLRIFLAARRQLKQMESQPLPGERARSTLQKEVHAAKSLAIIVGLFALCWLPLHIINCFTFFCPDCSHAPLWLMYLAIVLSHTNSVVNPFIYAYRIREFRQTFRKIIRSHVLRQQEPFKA

B1: Mini-Gs414 (other)
chain: GIEKQLQKDKQVYRATHRLLLLGADNSGKSTIVKQMRIYHGGSGGSGGTSGIFETKFQVDKVNFHMFDVGGQRDERRKWIQCFNDVTAIIFVVDSSDYNRLQEALNDFKSIWNNRWLRTISVILFLNKQDLLAEKVLAGKSKIEDYFPEFARYTTPEDATPEPGEDPRVTRAKYFIRDEFLRISTASGDGRHYCYPHFTCAVDTENARRIFNDCRDIIQRMHLRQYELL
[1]
  apparent Tm of DM-solubilised NECA-bound A2AR: 32.9 °C
[2]
  ΔTm of 3H-NECA-bound A2AR with mini-Gs414 against A2AR only, in decylmaltoside (DM): 6.8 °C
  ΔTm of 3H-NECA-bound A2AR with mini-Gs414 against A2AR only, in dodecylmaltoside (DDM): 7.2 °C
  ΔTm of 3H-NECA-bound A2AR with mini-Gs414 against A2AR only, in octylglucoside (OG): 13.4 °C

B2: mini-Gs/q70 (other)
chain: B1 chain with Y39L, R215K, Q219L, R220Q, H222N, Q225E, E227N, L229V
notes: also called mini-Gs/q chimera; Gs/q construct 70
[3]
  apparent Tm of digitonin-solubilised 125I-AngII-bound AT1R (alone 22.6 °C): 30.7 °C
[4]
  apparent Tm of DM-solubilised 3H-NECA-bound A2AR (alone 26.9 °C): 27.5 °C
[5]
  apparent Tm of DDM-solubilised 3H-NTS-bound NTSR1 (alone 24.9 °C): 32.5 °C
[6]
  binding result: no binding (tested: 25 µM)
[7]
  binding result: no binding

B3: Mini Gs393 (other)
chain: B1 chain with Y39L
[8]
  apparent Tm of β1AR-WT complex in decylmaltoside (receptor alone 20.4 °C): 30.5 °C
  apparent Tm of β1AR-WT complex in dodecylmaltoside (receptor alone 25.9 °C): 34.1 °C
  apparent Tm of β1AR-WT complex in nonylglucoside (uncoupled receptor did not survive): 24.7 °C
  apparent Tm of β1AR-WT complex in octylglucoside (uncoupled receptor did not survive): 19.7 °C

B4: mini-Gs/q58 (other)
chain: MGHHHHHHENLYFQGIEKQLQKDKQVYRATHRLLLLGADNSGKSTIVKQMRILHGGSGGSGGTSGIFETKFQVDKVNFHMFDVGGQRDERRKWIQCFNDVTAIIFVVDSSDYNRLQEALNDFKSIWNNRWLRTISVILFLNKQDLLAEKVLAGKSKIEDYFPEFARYTTPEDATPEPGEDPRVTRAKYFIRDEFLRISTASGDGRHYCYPHFTCAVDTENARRIFAAVKDTILQLNLKEYNLV
[9]
  binding result: no binding
[4]
  apparent Tm of DM-solubilised 3H-NECA-bound A2AR (alone 26.9 °C): 26.9 °C
[5]
  apparent Tm of DDM-solubilised 3H-NTS-bound NTSR1 (alone 24.9 °C): 25.1 °C
[6]
  binding result: no binding (tested: 25 µM)

Source: patent US20190032033A1 (HEPTARES THERAPEUTICS, published 2019)
